Laboratory results as given in the supplement of paper PMC6379048.

Key:
CELF2 [1] = target: T1, CELF2 (UniProt O95319); assay: Kd (EC50 corrected by depletion factor)
T1 sequence: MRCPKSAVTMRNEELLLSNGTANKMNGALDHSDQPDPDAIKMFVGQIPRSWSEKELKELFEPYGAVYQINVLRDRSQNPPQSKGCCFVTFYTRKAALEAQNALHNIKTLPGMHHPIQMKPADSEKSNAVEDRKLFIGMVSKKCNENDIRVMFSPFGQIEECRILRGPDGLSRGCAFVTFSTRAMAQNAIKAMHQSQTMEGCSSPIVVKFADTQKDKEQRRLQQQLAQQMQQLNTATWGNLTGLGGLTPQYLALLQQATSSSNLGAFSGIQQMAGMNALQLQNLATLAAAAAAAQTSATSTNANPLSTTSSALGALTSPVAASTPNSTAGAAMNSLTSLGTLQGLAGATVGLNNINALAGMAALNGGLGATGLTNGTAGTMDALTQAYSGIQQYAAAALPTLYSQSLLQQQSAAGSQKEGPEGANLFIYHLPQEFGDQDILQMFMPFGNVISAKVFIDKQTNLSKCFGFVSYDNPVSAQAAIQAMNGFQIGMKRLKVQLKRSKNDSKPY
Method in brief: (§1)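 Over three biological replicates and two independent experiments, proteins captured on NHS-Sepharose beads carrying 5′-amino-C6 RNA oligos were quantified by label-free LC-MS/MS and normalised to the control. Capture lasted 30 min at 4°C and followed a 1 h pre-incubation at 4°C of HEK293-FT lysate (2.5 mg protein/well) with the same oligos in free form (0 nM to 30 μM). EC50 was taken from a four-parameter log-logistic fit, and Kd was EC50 corrected by a protein-dependent depletion factor.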

XRN2 [2] = target: T2, XRN2 (UniProt Q9H0D6); assay: Kd (EC50 corrected by depletion factor)
T2 sequence: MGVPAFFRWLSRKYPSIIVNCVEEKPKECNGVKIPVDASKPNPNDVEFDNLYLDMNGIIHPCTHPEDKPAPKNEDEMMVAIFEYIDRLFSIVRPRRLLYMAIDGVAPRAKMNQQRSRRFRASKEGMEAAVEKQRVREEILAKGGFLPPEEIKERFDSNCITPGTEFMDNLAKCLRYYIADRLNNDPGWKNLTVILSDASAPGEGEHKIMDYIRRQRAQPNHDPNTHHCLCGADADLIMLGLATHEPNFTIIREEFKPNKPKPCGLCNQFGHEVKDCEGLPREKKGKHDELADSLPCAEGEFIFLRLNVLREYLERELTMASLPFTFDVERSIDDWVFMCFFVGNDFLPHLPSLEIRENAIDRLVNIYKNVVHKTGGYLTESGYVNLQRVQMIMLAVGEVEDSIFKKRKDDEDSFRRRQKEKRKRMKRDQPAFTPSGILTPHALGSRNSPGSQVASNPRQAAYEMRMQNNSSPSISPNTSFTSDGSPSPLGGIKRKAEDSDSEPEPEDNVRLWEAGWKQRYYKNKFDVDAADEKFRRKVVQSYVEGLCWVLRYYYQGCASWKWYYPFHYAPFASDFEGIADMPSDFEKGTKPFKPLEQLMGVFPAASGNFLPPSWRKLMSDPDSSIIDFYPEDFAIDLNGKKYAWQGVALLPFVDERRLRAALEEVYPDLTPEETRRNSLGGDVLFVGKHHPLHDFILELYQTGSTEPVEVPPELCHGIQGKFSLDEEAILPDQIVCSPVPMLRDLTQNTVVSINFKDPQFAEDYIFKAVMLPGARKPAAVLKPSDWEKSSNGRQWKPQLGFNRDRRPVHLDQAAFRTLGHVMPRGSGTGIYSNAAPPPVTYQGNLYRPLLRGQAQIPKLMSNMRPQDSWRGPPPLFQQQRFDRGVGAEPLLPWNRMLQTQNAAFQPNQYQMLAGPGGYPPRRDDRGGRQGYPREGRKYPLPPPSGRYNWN
Method in brief: as §1

CELF2 [3] = target: T1, CELF2; assay: EC50 of free RNA motif oligo competing protein binding to immobilised probe
Method: (§2)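 Competition-binding assay: HEK293-FT cell lysate (2.5 mg protein) pre-incubated 1 h at 4°C with free motif-containing RNA oligos (0 to 30 µM, 12 doses), then pulled down with the same 5'-amino-C6 RNA oligos immobilised on NHS-Sepharose beads (30 min, 4°C). Bound proteins were quantified by label-free LC-MS/MS and normalised to the water control. EC50 came from a four-parameter log-logistic fit; Kd = EC50 x depletion factor. Random/reversed control probes are dropped.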

DHX15 = DHX15 (UniProt O43143); assay: as above
DHX15, sequence (O43143 whole entry): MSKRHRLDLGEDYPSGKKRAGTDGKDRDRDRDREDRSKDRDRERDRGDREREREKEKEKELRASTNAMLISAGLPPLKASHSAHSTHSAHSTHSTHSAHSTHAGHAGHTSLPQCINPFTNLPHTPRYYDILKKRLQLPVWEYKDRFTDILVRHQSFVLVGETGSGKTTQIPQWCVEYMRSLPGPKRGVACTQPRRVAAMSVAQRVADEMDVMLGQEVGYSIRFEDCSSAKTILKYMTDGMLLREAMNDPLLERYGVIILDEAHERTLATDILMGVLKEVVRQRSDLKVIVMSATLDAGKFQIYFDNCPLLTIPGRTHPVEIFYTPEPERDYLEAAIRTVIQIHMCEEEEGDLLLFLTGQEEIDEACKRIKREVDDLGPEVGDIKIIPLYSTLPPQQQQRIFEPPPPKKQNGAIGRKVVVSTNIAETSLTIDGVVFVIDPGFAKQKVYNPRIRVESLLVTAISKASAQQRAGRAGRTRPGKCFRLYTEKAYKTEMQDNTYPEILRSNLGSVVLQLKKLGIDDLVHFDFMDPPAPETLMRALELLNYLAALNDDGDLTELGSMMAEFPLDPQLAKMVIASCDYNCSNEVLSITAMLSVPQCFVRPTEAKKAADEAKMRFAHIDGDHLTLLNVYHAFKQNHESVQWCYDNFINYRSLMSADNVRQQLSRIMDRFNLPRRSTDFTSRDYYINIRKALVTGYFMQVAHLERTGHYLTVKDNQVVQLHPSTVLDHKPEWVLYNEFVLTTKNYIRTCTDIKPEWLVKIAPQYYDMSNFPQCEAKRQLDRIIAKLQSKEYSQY
Method: as §2

DHX9 = DHX9 (UniProt Q08211); assay: as above
DHX9, sequence (Q08211 whole entry): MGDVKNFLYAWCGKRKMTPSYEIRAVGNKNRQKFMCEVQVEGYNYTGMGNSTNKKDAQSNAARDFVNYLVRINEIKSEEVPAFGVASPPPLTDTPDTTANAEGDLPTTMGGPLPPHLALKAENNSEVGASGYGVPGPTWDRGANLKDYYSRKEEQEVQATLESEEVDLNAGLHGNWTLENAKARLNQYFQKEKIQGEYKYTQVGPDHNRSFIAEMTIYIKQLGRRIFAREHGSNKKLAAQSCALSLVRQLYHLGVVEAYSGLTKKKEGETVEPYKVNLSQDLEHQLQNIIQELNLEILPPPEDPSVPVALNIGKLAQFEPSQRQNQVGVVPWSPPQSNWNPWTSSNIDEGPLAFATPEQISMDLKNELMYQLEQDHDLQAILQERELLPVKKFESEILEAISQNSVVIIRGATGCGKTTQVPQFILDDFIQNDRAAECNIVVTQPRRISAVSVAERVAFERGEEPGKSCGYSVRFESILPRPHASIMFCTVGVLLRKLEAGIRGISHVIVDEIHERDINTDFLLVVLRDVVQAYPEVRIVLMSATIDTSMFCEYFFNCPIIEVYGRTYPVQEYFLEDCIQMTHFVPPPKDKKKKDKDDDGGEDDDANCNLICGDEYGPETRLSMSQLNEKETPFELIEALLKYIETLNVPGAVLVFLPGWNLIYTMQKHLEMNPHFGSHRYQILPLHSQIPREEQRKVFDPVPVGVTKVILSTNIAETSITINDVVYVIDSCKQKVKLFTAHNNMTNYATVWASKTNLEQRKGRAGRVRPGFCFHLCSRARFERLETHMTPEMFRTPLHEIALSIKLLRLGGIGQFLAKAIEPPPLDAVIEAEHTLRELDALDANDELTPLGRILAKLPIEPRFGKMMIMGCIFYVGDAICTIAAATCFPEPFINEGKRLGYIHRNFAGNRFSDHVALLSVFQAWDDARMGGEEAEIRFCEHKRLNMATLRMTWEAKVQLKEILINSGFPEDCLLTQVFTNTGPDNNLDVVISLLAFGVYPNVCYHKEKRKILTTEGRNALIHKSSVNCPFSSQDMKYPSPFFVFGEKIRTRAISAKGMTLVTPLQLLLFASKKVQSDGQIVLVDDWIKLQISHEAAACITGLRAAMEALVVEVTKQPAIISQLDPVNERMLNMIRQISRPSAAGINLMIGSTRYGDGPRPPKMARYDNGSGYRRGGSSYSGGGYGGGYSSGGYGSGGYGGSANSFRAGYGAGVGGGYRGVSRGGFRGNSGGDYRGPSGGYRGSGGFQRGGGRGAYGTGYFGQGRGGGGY
Method: as §2

XRN2 [4] = target: T2, XRN2; assay: as above
Method: as §2

ZCCHC8 = target: T3, ZCCHC8 (UniProt Q6NZY4); assay: as above
T3 sequence: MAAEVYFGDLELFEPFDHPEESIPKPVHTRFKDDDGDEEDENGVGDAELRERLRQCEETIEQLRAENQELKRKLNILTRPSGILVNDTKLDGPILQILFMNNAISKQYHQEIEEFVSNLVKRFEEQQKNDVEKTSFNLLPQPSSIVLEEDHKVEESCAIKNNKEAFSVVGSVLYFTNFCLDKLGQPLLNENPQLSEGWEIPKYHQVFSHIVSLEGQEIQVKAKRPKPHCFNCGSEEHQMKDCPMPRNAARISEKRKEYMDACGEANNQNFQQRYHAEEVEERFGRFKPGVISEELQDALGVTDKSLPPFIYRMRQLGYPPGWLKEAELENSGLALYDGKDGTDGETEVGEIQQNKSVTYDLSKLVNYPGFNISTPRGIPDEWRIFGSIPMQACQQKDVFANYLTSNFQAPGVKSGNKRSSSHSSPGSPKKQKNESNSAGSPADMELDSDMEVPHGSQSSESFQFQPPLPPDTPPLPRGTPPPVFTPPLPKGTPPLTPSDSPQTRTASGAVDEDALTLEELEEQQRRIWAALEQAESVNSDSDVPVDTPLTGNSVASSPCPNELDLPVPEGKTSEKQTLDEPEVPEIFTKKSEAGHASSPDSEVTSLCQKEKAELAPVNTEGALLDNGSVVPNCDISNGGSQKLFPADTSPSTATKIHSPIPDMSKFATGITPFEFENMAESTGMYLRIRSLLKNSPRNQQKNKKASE
Method: as §2

| Sequence | Kd (CELF2 [1]) | Kd (XRN2 [2]) | EC50 (CELF2 [3]) | EC50 (DHX15) | EC50 (DHX9) | EC50 (XRN2 [4]) | EC50 (ZCCHC8) |
| --- | --- | --- | --- | --- | --- | --- | --- |
| UAUUUAU | 283 nM | 184 nM | 517 nM | 576 nM | 1870 nM | 409 nM | 615 nM |
| AAUAAA | 114 nM | 354 nM | 1250 nM | 2150 nM | 4050 nM | 843 nM | 2460 nM |
| CUGUCCU | 948 nM | 80.8 nM | 2670 nM | 757 nM | 546 nM | 147 nM | 3110 nM |
